Laboratory results taken from PMC6051491, “Dynamic structure mediates halophilic adaptation of a DNA polymerase from the deep-sea brines of the Red Sea”.

Key:
Assay in all cases: SPR; 100 mM NaCl; SPR (Biacore T100, SA chip, steady state): 20 mM Tris-HCl pH 8.8, 10 mM (NH4)2SO4, 0.1% Triton X-100, 100 or 300 mM NaCl; temperature not stated
KOD Pol WT = molecular target: T1, KOD Pol WT (Thermococcus kodakarensis, UniProt P77933 1-406+767-851+1389-1671, internal_change); details: protein: recombinant, tags: N-terminal His
T1 sequence: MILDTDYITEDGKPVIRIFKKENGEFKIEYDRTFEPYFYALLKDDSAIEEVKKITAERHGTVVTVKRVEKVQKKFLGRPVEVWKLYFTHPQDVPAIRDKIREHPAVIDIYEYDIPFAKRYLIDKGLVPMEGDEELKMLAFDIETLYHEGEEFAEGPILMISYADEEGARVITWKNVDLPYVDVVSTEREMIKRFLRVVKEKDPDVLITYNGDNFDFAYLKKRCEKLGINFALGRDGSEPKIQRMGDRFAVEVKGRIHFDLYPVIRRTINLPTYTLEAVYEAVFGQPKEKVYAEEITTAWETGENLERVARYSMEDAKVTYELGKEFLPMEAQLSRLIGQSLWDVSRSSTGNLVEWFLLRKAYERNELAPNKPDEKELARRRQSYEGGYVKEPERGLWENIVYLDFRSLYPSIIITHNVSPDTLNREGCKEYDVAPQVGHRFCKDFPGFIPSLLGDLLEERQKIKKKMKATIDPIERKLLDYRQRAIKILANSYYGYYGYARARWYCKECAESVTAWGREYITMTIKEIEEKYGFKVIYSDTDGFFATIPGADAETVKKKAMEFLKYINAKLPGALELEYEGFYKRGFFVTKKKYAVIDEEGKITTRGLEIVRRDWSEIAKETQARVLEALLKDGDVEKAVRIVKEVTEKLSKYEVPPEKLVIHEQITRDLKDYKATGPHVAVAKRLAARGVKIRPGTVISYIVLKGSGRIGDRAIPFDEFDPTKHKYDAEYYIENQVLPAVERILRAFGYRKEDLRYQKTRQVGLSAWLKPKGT

KODBR3exo Pol = molecular target: T2, KODBR3exo Pol (Thermococcus kodakarensis / BR3 chimera, UniProt P77933 1-130+A0A133VA65:160-367+329-406+767-851+1389-1671, internal_change); details: protein: recombinant; label: 3' biotin on template (immobilized); primer pairs with template 3' end; 5' overhang 23 nt of template
T2 sequence: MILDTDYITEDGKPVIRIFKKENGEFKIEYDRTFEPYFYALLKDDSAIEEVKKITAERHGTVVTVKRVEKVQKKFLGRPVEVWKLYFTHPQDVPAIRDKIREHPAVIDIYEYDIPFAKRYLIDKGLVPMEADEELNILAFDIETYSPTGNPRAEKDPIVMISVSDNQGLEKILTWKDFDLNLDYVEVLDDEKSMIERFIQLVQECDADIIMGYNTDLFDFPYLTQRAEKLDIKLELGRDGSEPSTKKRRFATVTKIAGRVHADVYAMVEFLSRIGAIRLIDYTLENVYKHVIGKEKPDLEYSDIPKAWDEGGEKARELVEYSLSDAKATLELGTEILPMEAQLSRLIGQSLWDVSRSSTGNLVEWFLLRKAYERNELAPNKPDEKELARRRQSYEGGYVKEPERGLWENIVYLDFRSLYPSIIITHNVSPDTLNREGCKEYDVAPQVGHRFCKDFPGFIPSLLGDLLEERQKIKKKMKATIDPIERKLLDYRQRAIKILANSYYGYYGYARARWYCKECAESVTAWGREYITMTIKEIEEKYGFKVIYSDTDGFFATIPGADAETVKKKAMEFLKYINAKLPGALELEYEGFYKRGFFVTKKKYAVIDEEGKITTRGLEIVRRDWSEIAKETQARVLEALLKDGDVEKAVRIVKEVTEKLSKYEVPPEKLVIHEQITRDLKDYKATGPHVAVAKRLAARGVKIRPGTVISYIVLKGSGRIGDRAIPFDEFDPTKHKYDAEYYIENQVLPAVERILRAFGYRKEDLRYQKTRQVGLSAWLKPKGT

KODBR3thumb Pol = molecular target: T3, KODBR3thumb Pol (Thermococcus kodakarensis / BR3 chimera, UniProt P77933 1-406+767-851+1389-1479+A0A133VA65:621-805, internal_change); details: protein: recombinant; label: 3' biotin on template (immobilized); primer pairs with template 3' end; 5' overhang 23 nt of template
T3 sequence: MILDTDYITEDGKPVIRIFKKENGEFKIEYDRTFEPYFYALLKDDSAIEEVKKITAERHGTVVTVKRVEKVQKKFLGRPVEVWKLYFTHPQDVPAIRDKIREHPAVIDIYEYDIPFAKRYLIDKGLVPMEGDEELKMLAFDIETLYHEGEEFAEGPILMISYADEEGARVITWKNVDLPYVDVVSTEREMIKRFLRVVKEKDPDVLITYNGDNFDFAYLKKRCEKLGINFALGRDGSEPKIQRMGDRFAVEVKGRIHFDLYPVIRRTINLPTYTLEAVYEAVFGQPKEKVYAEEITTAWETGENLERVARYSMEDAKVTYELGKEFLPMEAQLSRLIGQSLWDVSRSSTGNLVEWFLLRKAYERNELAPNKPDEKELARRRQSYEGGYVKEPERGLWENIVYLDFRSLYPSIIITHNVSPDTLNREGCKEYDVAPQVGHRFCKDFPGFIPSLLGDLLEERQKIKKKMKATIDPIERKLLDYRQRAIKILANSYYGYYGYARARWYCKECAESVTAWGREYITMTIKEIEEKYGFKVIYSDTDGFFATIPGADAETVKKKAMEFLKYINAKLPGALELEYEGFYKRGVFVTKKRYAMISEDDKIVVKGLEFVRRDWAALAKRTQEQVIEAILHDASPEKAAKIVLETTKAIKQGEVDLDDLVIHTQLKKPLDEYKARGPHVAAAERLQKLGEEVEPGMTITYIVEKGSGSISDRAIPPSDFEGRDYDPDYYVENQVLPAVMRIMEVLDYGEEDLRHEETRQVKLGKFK

B1: primer/template (mixed)
DNA 1: GAGGTGGCGTCGGGTGGACGGGTGGATTGAAATTTAGGCTGGCAC
DNA 2: GTGCCAGCCTAAATTTCAATCC
Work on B1 yielded a Kd (KOD Pol WT; label: 3' biotin on template (immobilized), primer pairs with template 3' end, 5' overhang 23 nt of template) of 3.5 nM, a Kd (KODBR3exo Pol) of 6.5 nM and a Kd (KODBR3thumb Pol) of 12.5 nM.

B2: dsDNA (dsDNA)
DNA 1: B1 DNA 1
DNA 2: GTGCCAGCCTAAATTTCAATCCACCCGTCCACCCGACGCCACCTC
B2 gave a Kd (KOD Pol WT; label: 3' biotin on strand 1 (immobilized), blunt) of 239 nM.

B3: ssDNA (ssDNA)
DNA: TTTTTTTTTTTTTTTTTTTTTTTTTTTTTTTTTTTTTTTT
Work on B3 yielded a Kd (KOD Pol WT; label: 5' biotin (immobilized)) of 32.8 nM.
